Results on one protein are retold here after paper PMC3078890, “Sponge non-metastatic Group I Nme gene/protein - structure and function is conserved from sponges to humans” (BMC Evolutionary Biology, 2011).

The data set deals with the molecule itself. The data set is described as follows: cross-linking; 8 ug protein in PBS at room temperature, 25 mM glutaraldehyde for 5 min, quenched with 0.2 M Tris-HCl pH 7.5; 12.5% SDS-PAGE, Coomassie staining.

By stoichiometry N is commonly meant a count of units in the complex or per binding partner.

B1: sponge NmeGp1Sd protein (Suberites domuncula Group I Nme), recombinant (natural protein, UniProt Q5DIW9 1-151, looked up)
chain: MTTERTYIMIKPDGVQRGLMGDIIKRFEQKGFKMVAMKFMQPSEKLLSEHYADLSKKPFFPGLVKFMATSPVCCMVWEGQGAVATGRQMLGETDPAKSKPGTIRGDFCIHIGRNICHGSDSVESANKEIALWFKPEELVDWTPTEQQWIYE
notes: NmeGp1Sd (formerly Nm23-SD1), Group I Nme / nucleoside diphosphate kinase of the marine sponge Suberites domuncula; cDNA cloned into pET15b (NdeI/BamHI) with primers from the ATG start codon to the stop codon; Cloned downstream of the thrombin site of pET15b; residues of the vector may remain at the N-terminus after cleavage; also called Nm23-SD1; not shown: His6, N-terminal, cleaved
Turning to B1, the “stoichiometry N” value came out at 6.
